The target of this test is Full-length isoform 165 of human VEGF-A (human) (UniProt P15692). Put plainly: SPR; Biacore T200, 25 °C, PBS with 0.05% Tween 20 and 3.4 mM EDTA; VEGF-A amine-coupled to a CM-5 chip; Fab injected in single cycle kinetics with five increasing concentrations; double referenced; fit to a 1:1 Langmuir binding model. A general note: In SPR one partner is held on a chip, and binding of the other changes the refractive index at the surface.
Chain of Full-length isoform 165 of human VEGF-A (human) (P15692 other isoform, or with tags, fused parts or gaps): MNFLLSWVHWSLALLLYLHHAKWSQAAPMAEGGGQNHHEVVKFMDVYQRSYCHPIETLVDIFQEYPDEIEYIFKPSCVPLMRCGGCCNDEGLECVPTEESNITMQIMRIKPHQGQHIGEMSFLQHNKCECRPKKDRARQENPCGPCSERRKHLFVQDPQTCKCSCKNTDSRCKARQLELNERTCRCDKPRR

B1: bH1 Fab H3 variant 16_0325 (Fab, V domains shown)
VH: EVQLVESGGGLVQPGGSLRLSCAASGFNIKDTYIHWVRQAPGKGLEWVARIYPTNGYTRYADSVKGRFTISADTSKNTAYLQMNSLRAEDTAVYYCARGGAVAGTGVYYFDYWGQGTLVTVSS
VL: DIQMTQSPSSLSASVGDRVTITCRASQDIPRSISGYVAWYQQKPGKAPKLLIYWGSYLYSGVPSRFSGSGSGTDFTLTISSLQPEDFATYYCQQHYTTPPTFGQGTKVEIK
One may read the Kd as the constant that tells how readily two partners part at equilibrium. On to B1, for which the dissociation constant (Kd) came out at 8 nM.

B2: bH1 Fab H3 variant 14_0112 (Fab, V domains shown)
VH: EVQLVESGGGLVQPGGSLRLSCAASGFNIKDTYIHWVRQAPGKGLEWVARIYPTNGYTRYADSVKGRFTISADTSKNTAYLQMNSLRAEDTAVYYCAKGGSSSGPYHFEYWGQGTLVTVSS
VL: DIQMTQSPSSLSASVGDRVTITCRASQDIPRSISGYVAWYQQKPGKAPKLLIYWGSYLYSGVPSRFSGSGSGTDFTLTISSLQPEDFATYYCQQHYTTPPTFGQGTKVEIK
In the case of B2, the dissociation constant Kd turned out to be 8 nM.
